Consider three molecules from publication doi:10.1101/2021.06.16.448340 (bioRxiv, 2021).

The labels stand for the following.
T1: CtaD with Strep-tag, subunit I homologue of complex IV (Corynebacterium glutamicum, UniProt Q79VD7 1-584)
T1 sequence (looked up): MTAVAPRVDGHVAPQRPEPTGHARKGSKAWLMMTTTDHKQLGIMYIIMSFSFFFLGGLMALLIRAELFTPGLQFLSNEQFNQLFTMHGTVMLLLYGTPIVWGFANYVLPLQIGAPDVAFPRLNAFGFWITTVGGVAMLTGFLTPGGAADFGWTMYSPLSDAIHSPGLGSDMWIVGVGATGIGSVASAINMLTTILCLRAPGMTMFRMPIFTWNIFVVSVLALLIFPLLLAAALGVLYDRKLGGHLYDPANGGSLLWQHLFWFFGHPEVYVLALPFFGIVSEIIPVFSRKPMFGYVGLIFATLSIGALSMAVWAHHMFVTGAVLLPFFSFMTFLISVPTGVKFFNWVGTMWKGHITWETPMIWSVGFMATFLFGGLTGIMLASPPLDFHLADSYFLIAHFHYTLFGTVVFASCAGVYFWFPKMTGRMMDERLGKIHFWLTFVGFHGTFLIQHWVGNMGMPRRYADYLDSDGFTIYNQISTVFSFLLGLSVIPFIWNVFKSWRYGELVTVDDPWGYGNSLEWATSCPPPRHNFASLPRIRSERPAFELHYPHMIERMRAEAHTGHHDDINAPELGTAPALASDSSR

B1: QcrB, cytochrome b subunit of complex III (natural protein, Corynebacterium glutamicum, UniProt Q79VE9 1-539, looked up)
chain: MSLATVGNNLDSRYTMASGIRRQINKVFPTHWSFMLGEIALYSFIVLLLTGVYLTLFFDPSITKVIYDGGYLPLNGVEMSRAYATALDISFEVRGGLFIRQMHHWAALLFVVSMLVHMLRIFFTGAFRRPREANWIIGVVLIILGMAEGFMGYSLPDDLLSGVGLRIMSAIIVGLPIIGTWMHWLIFGGDFPSDLMLDRFYIAHVLIIPAILLGLIAAHLALVWYQKHTQFPGAGRTENNVIGIRIMPLFAVKAVAFGLIVFGFLALLAGVTTINAIWNLGPYNPSQVSAGSQPDVYMLWTDGAARVMPAWELYLGNYTIPAVFWVAVMLGILVVLLVTYPFIERKFTGDDAHHNLLQRPRDVPVRTSLGVMALVFYILLTVSGGNDVYAMQFHVSLNAMTWIGRIGLIVGPAIAYFITYRLCIGLQRSDREVLEHGIETGIIKQMPNGAFIEVHQPLGPVDDHGHPIPLPYAGAAVPKQMNQLGYAEVETRGGFFGPDPEDIRAKAKEIEHANHIEEANTLRALNEANIERDKNEGKN
B2: Complex III (cyt. bc1 complex) protomer, QcrA-QcrB-QcrC (complex, Corynebacterium glutamicum)
chain 1: MSNNNDKQYTTQELNAMSNEDLARLGTELDDVTIAYRKERFPIANDPAEKRAARAVTFWLVLGIIGGLGFLATYIFWPWEYKAHGDEGLLAYTLYTPMLGITSGLCILSLGFAVVLYVKKFIPEEIAVQRRHDGPSEEVDRRTIVALLNDSWQTSTLGRRKLIMGLAGGGAVLAGLTIIAPMGGMIKNPWNPKEGPMDVQGDGTLWTSGWTLVENDVKVYLGRDTAAIAESHTDATGEHWSTTGVSRLVRMRPEDLAAASMETVFPLPAEMVNDGAEYDPAKDVYEHQMHSVHGPRNAVMLIRLRTADAEKVIEREGQESFHYGDYYAYSKICTHIGCPTSLYEAQTNRILCPCHQSQFDALHYGKPVFGPAARALPQLPITVDEEGYLIAAGNFIEPLGPAFWERKS
chain 2: B1 chain
chain 3: MAKPSAKKVKNRRKVRRTVAGALALTIGLSGAGILATAITPDAQVATAQRDDQALISEGKDLYDVACITCHGVNLQGVEDRGPSLVGVGEGAVYFQVHSGRMPILRNEAQAERKAPRYTEAQTLAIAAYVAANGGGPGLVYNEDGTLAMEELRGENYDGQITSADVARGGDLFRLNCASCHNFTGRGGALSSGKYAPNLDAANEQEIYQAMLTGPQNMPKFSDRQLSADEKKDIIAFIKSTKETPSPGGYSLGSLGPVAEGLFMWVFGILVLVAAAMWIGSRS
B3: AscA (P20, PRSAF1) (natural protein, Corynebacterium glutamicum, UniProt Q8NP09 1-147, looked up)
chain: MAGSSHTIEPEIYRGVSTLDEPSAAWGWHGLKRNTIQLAGWISVLFMLGYNFGNHKGHVETIWLLVITALLVIGLLIHLFEPKLSQVRTITSRNKPVGHVEPDWTYDQATLTGTWGNLTDSQLRSVNIEPSRVAHLRAADSAKELDN

The target in data set [1] is T1, CtaD with Strep-tag, subunit I …. The data set can be described thus: affinity purification with mass spectrometry.
The data set “cryo-EM structure” deals with the molecule itself. The data set can be described thus: cryo-EM structure.
The target in data set [2] is T1, CtaD with Strep-tag, subunit I …. The data set can be described thus: cryo-EM structure.
Data set [3] has as its target B1. The data set can be described thus: cryo-EM structure.

With B1, the binding result in data set [1] is on record as “binds”.

In the case of B2, the “stoichiometry N” value in “cryo-EM structure” is 2.

Consider B3, for which the binding result in data set [2] and in data set [3] was “binds” each time.

A word on the stoichiometry N: it is a count of units in the complex or per binding partner.
